Read-outs that look alike come from different tables or passages of the source.

In assay [1] the target is ALK1-Fc ECD (Homo sapiens) (UniProt P37023). The conditions noted are these: cited from earlier work.
The target in assay [2] is ALK1-Fc (ALK1 extracellular domain-Fc fusion protein) (UniProt P37023). Briefly: SPR; Biacore T100; ALK1-Fc (800 RU) or ALK1 monomer (270 RU) amine-coupled to a CM5 chip; ligands injected at 30 μl min^-1 in 0.01 M HEPES pH 7.4, 0.5 M NaCl, 3 mM EDTA, 0.5 mg ml^-1 BSA, 0.01% P20, 25 °C; 1:1 model with mass transport limitations; KD = kd/ka.
The target in assay [3] is ALK1-Fc ECD (Homo sapiens) (UniProt P37023). The following applies: cited from earlier work. This is another data set of the same source.

Chain of ALK1-Fc (ALK1 extracellular domain-Fc fusion protein) (P37023 22-118): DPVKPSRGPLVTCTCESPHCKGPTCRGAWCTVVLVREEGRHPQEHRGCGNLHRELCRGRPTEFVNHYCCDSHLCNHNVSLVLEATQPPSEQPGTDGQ
Chain of ALK1-Fc ECD (Homo sapiens) (P37023 22-118): as above
Chain of BMP10 (O95393 317-424): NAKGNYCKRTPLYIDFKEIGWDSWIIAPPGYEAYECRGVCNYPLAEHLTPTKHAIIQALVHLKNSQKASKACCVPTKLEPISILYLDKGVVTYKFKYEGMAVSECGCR
Chain of BMP9 (Q9UK05 320-429): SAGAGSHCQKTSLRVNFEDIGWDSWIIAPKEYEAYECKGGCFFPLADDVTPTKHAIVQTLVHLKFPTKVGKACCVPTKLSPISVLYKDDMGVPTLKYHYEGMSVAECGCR

Regarding BMP9 (from UniProt Q9UK05), in assay [1], the dissociation constant (Kd) (as a rule, a measure of binding affinity in units of concentration) is 45.2 pM.

Substance “BMP9 GF-domain (bone morphogenetic protein 9 growth factor domain) (from UniProt Q9UK05 320-429) (ligand)” showed a Kd in assay [2] of 48.1 pM.

Take BMP10 (from UniProt O95393): the equilibrium dissociation constant (Kd) in assay [3] is 10.3 pM.

In assay [2], “BMP10 GF-domain (bone morphogenetic protein 10 growth factor domain) (from UniProt O95393 317-424) (ligand)” displayed a Kd of 34.3 pM.
